Target: T1, MSL2-FLAG (D. melanogaster, UniProt P50534 1-773)
T1 sequence (looked up): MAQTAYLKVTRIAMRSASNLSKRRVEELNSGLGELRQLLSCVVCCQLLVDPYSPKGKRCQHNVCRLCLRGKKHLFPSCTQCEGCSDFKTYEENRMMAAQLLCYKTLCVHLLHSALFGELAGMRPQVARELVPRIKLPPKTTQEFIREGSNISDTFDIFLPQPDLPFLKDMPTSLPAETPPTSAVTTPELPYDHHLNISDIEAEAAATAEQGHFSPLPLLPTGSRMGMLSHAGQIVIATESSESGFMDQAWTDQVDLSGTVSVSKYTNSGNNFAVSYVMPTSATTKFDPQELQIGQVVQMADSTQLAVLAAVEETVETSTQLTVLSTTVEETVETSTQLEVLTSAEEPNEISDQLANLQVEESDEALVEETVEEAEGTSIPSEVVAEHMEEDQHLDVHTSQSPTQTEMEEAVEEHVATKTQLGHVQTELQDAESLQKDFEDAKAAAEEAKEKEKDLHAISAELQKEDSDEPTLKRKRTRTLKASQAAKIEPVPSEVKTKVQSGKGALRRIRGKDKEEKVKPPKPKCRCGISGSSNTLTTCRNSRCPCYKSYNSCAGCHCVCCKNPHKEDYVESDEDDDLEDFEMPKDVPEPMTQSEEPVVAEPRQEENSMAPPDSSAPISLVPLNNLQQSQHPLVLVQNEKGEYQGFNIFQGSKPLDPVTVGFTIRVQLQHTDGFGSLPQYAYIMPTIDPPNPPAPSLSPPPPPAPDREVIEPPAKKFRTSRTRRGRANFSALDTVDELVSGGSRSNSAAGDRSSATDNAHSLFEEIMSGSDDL
Experiment: co-IP

B1: CLAMP-FLAG (natural protein, D. melanogaster, UniProt Q9V9N4 1-561, looked up)
chain: MEDLTKNIIFTNAINGQPATIQYQTADGTILKQPKIEGQKTEQQPTFYYTTNGNGGTVNLAQLATTDDNKTCYIAQPVGGYNYALVNGMPLNQGAALGIATVDAQGRIQIVNQNKPIAANTISNISFKCDVCSDMFPHLALLNAHKRMHTDGEQQQQQQHNAQAGGDSIAVVSAQGLVQAQNIIGNGQMGQIQIVSSDTLEPVQQSVMQQQQHESKASKCINCGSSMLQQSKRKGPKQVRCESCMQAEQTAQQQQQLFVAQDGQMAHPVQIISTTPQAQAQLQQIVAAQTGGTTPKREASSGSGHHPVKKRNSQQMTKCQKCNGSGVVLVGQHSHASHSGVGGSVKQSVTVKTENPSKPFSCNICGGLFSRYSSLWSHKKLHSGEKNYKCSICGLAFAKAVYLKNHARIHTGEKPYKCQTCGMQFSQSPHLKNHERTHSGERPYVCGVCDKGFARHATLWNHRRIHTGEKPYKCEICGSAFSQAAHLKNHAKVHSGEKPYKCEICSAAFADRFALKRHRGIHQKYGQTAPRQTSSDGMIVHKQEIPDMEDEAQQEVIIGGL
binding result: binds
